US7250395B2, “Antagonist peptides to VEGF receptor Flt-1” (Beijing Institute for Cancer Research, priority 2001, dated 2007)
Where a chain is given by its changes, count along the chain named. Entries after “also recorded” stand apart in the source; their conditions may differ. Blank lines part the entries; values can stand above or below the molecule they belong to.

Tests used:
[1] = system: chick chorioallantoic membrane blood vessels; experiment: Proliferation of blood vessels on chick chorioallantoic membrane; assay type: in vivo
Protocol: In this example, a proliferation assay on chick chorioallantoic membrane blood vessels was carried out to detect the inhibition of F56 to angiogenesis.
The experiment was carried out according to a method described by Fu Shengfa et al. (Fu Shengfa, Lu Yinglin and Zhang Chaoshan: Technique of detecting the effects of vascular growth factor with chorioallantoic membrane of fertilized chicken eggs. Chin Mili. Acad. Medi. Scie. 1993, 17:294-97”). Particularly, fresh inseminated chicken eggs were soaked in 0.1% benzalkonium bromide solution for 2 minutes at 38° C., and incubated in an incubator at 37.5° C., 60-70% humidity for 3 days. Then, the eggs were stripped and cultured on a petri dish. When the allantoic membrane grew to about 1cm^2, the different groups (5 chick embryos per group) were treated with the following agents. VEGF165 (2 μg/L), DHFR (negative control) or 18 μl F56 solution (0.8 μg/μl) was dropped onto a glass-fiber filter membrane (Φ5 mm). The membrane was placed on the distal end (in relation to the heart of the embryo) of the chorioallantoic membrane. The agents were administered once in the morning and once in the evening for 2 days. The results were observed and recorded by photography. The experiment was repeated twice (Kodak 100, exposed for 3 s).

[2] = system: human umbilical cord vein-derived endothelial cells (HUVECs); experiment: VEGF-stimulated proliferation of HUVECs (3H-TdR incorporation); assay type: cell-based; settings: 50, 100, 200, 300 μmol/L with VEGF165, 48 hours; FIG. 2
Protocol: A sample of human umbilical cord (obtained from Beijing Gynecological and Obstetric Hospital) was digested by 0.1% collagenase II (purchased from GIBCO BRL Corporation), and centrifuged at 1000 rpm for 10 minutes to collect the human umbilical cord vein-derived endothelial cells (HUVECs). The cells were suspended in 20% FCS/RPMI 1640 (purchased from GIBCO BRL Corporation), and transferred to a plastic culture flask and cultured in a incubator (37° C., 5% CO2) for 2 days. Then, the cultured HUVECs were digested with 0.04% trypsin-EDTA, and inoculated into a 24-well plate at 3×10^4 cells/well. After 24 hours' incubation, the cells were incubated for another 24 hours in new medium 2% FCS/RPIM 1640. VEGF165 (product of Sigma Corporation) was added either independently or as a mixture with peptide F56 or F90 of different concentrations (50, 100, 200, 300 μmol/L). 4 parallel wells were used for each group. The cells were incubated for 48 hours. Then, ^3H-TdR(1 μci/ml) was added and the cells were incubated for another 8 hours. The cells were collected to a glass-fiber filter membrane. The cpm value was detected according to conventional methods. The same experiment was repeated for 3 times.

[3] = system: human breast cancer cells; experiment: Metastasis model of breast cancer in SCID mice; assay type: in vivo
Protocol: In order to observe the inhibitory activity of the peptides of the present invention to cancer metastasis, a metastasis model of breast cancer in SCID mice as described by Li Zhihong at al. (Transplant of human breast cancer in nude mice. Natl. Med J Chin. Vol.80 (11), 2000) was used to determine the function of F56. Briefly, human breast cancer cells were inoculated under the fat pad in the breast of SCID mice. Peptide F56 (0.5 mmol/L) was injected topically (60 μl per mouse per time) on the next day and every other day for 10 times in total. After 8 weeks, the mice were put to dead. The tumors were taken out and weighted. The whole lung was taken out, fixed and sliced with maximal cross-section and dyed by HE. The number of metastatic foci was counted.

[4] = biological target: T1, sFlt-1 (Homo sapiens, UniProt P17948); experiment: ELISA test of binding specificity to soluble receptor sFlt-1; settings: for binding to Flt-1 (in words): ELISA; for ELISA (OD492 nm), SFlt-1: plate coated with sFlt-1 5 mg/L, detection with DHFR-specific monoclonal antibody
T1 construct: made in house
Protocol: (§1) The specificity of the binding of the fusion proteins DHFR-F56 and DHFR-F90 to receptor Flt-1 was tested by ELISA in the present example.
(§2) Particularly, a 96-well plate was coated with soluble receptors, sFlt-1, sKDR (5 mg/L, 50 μl/well) [Song Shumei, Shou Chengchao: Molecular cloning and its expression of vascular endothelia growth factor receptor KDR. Chin J. Biochem. Mol. Bio. 1998, 14 (1): 57-61; An Ping, Dong Zhewei and Shou Chengchao: Molecular cloning and its bio-activity of soluble VEGF receptor expressed in bacterial. Chin J. Biochem. Mol. Bio. 2000, 16 (1): 62-66]. Alternatively, the vascular endothelial cells in a 96-well plate were fixed by pre-cooled 0.125% glutaraldehyde solution. DHFR, DHFR-F56 or DHFR-F90 was added to the plate after blocking. An ELISA assay was carried out using a DHFR-specific monoclonal antibody according to conventional method. The ELISA assay was repeated for 3 times.

[5] = biological target: T2, sKDR (Homo sapiens, UniProt P35968); experiment: ELISA test of binding specificity to soluble receptor sKDR; settings: for reaction with KDR (in words): ELISA; for ELISA (OD492 nm), SKDR: plate coated with sKDR 5 mg/L, detection with DHFR-specific monoclonal antibody
T2 construct: made in house
Protocol: as §1, §2

[6] = system: vascular endothelial cells; experiment: ELISA test of binding to fixed vascular endothelial cells; settings: for binding to endothelial cells (in words): ELISA; for ELISA (OD492 nm), EC: glutaraldehyde-fixed vascular endothelial cells, DHFR-specific monoclonal antibody
Protocol: as §1, §2

[7] = biological target: T3, soluble receptor of VEGF, Flt-1 (sFlt-1) (Homo sapiens, UniProt P17948); experiment: 125I-VEGF competitive binding assay on coated sFlt-1; settings: 1, 5, 10, 15, 20 μg/ml; 125I-VEGF 2 μg/L; FIG. 1
T3 construct: coated overnight at 4° C. by 0.5 mg/L soluble receptor of VEGF, Flt-1 (sFlt-1)
Protocol: In order to detect the activity of DHFR-F56 blocking VEGF binding to sFlt-1, a binding assay was carried out using ^125I-VEGF (purchased from Life Technology Inc.).
The experiment was carried out according to a method substantially as described by Tanaka, K., et al (Characterization of the extracellular domain in vascular endothelial growth factor receptor-1 (Flt-1 tyrosine kinase). Jpn J Cancer Res. 1997, 88:867-876). Briefly, a 96-well plate was coated overnight at 4° C. by 0.5 mg/L soluble receptor of VEGF, Flt-1 (sFlt-1). The coating solution was 0.01 mol/L phosphate buffer (pH 6.2). Then, the plate was rinsed with a washing solution (0.9% NaCl, 0.01 mol/L, pH6.2) for 3 times. 250 μl blocking buffer (0.3% BSA, 25 mmol/L HEPES, DMEM, pH7.6) was added into each well for 3 hours at room temperature. DHFR-F56 of different concentrations (1, 5, 10, 15, 20 μg/ml) (DHFR of different concentrations for the control group) and ^125I-VEGF (purchased from Life Technology Inc.) of fixed concentration (2 μg/L, […]) were added to the wells. 2 parallel wells were used for each concentration. The binding reaction underwent for 1 hour at room temperature. The plate was rinsed 4 times with the binding buffer. […] The cpm value was determined by a Wallac co liquid-scintillation counter after the solid residue had been dissolved.

[8] = system: MGC803 cells (a human gastric carcinoma cell line); experiment: Tumor inhibition test, MGC803 implanted in Balb/c nude mice; assay type: in vivo; settings: 150 μg/100 μl intraperitoneally every other day for 10 times; for growth of human gastric carcinoma MGC803 cells in Balb/c nude mice: p<0.05 vs DHFR control
Protocol: To testify whether DHFR-F56 and DHFR-F90 can inhibit tumor growth on the basis of anti-angiogenesis, a tumor inhibition test on Balb/c nude mice was performed.
MGC803 cells (a human gastric carcinoma cell line) was subcutaneously implanted on the right buttock of eight 5-week aged nude mice (purchased from the Animal Center of the Chinese Academy of Medical Sciences) (2×10^6 cells/0.1 ml/each mouse). On the fifth day after the implantation, the nude mice were grouped at random into […] each of which included 4 mice. DHFR (150 μg/100 μl per time), DHFR-F56 or DHFR-F90 (150 μg/100 μl per time) was injected intraperitoneally every other day for 10 times. […] The major and minor axes of the tumors were measured by vernier caliper every three days during the observation period. The volume of the tumor was calculated according to the formula of ½×major axis×minor axis^2. After the 30 days, the nude mice were put to dead by neck-breaking. The tumors were weighted and analyzed statistically.

[9] = on filter membrane, twice daily for 2 days, FIG. 3
[10] = 0.5 mmol/L 60 μl topically, 10 times
[11] = lung, 0.5 mmol/L 60 μl topically, 10 times, after 8 weeks

T2 sequence (P35968 20-764 limits assumed): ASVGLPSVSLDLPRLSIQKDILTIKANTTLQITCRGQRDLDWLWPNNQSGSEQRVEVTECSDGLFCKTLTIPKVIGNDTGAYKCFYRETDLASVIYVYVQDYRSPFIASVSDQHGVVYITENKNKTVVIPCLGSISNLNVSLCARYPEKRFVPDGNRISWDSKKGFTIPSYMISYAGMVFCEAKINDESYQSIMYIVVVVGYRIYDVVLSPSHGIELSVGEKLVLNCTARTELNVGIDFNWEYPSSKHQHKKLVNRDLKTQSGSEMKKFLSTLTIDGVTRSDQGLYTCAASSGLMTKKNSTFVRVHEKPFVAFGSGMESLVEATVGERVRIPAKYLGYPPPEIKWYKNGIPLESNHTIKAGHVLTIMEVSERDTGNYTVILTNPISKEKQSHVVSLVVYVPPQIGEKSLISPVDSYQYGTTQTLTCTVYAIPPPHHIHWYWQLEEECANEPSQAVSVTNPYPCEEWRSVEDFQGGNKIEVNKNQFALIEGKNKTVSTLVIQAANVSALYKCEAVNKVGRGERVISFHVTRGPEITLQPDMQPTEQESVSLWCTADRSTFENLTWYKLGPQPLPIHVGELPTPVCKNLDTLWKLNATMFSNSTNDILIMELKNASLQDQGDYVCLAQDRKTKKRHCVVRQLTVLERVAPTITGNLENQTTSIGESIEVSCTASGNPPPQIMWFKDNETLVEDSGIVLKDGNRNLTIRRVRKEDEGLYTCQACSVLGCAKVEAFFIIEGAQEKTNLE
T1 sequence (P17948 27-758 limits assumed, species assumed): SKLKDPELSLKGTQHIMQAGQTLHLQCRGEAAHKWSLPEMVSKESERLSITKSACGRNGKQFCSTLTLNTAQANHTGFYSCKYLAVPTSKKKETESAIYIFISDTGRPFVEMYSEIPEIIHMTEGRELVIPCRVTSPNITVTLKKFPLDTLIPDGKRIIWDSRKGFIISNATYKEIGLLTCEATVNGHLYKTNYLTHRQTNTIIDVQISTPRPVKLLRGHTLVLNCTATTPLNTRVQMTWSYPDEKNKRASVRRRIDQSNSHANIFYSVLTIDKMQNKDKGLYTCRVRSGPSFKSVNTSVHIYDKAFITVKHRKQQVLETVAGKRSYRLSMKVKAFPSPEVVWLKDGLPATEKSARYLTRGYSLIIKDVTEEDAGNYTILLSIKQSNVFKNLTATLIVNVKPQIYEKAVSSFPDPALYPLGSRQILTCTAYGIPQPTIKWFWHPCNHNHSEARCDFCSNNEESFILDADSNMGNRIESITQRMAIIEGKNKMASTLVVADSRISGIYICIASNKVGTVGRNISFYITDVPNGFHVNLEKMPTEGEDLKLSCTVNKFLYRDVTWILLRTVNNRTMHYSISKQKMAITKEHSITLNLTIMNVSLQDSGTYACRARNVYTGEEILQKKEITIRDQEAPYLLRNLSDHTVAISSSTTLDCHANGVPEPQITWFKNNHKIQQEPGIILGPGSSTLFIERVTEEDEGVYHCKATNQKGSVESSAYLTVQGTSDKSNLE
T3 sequence (P17948 27-758 limits assumed, species assumed): as above

Molecule: VEGF [reference compound]
effect on chick chorioallantoic membrane blood vessels ([1]; in vivo): can promote the proliferation; also recorded: stimulated the blood vessels to proliferate significantly

Molecule: H2N-Trp-His-Ser-Asp-Met-Glu-Trp-Trp-Tyr-Leu-Leu-Gly-COOH (H-WHSDMEWWYLLG-OH) [Peptide F56]
inhibition to the proliferation of umbilical cord vein-derived endothelial cells [2]: no significant inhibition
effect on chick chorioallantoic membrane blood vessels [1, 9]: rupture of blood vessels and bleeding in addition to blood vessel atrophy; also recorded: derangeable in distribution and atrophic
cancer metastasis to lung (in words) [3, 10]: significantly inhibit cancer metastasis to lung
tumor growth on the injection sites (in words) [3, 10]: inhibition of tumor growth on the injection sites
Number of metastatic foci in each mouse, mouse 1 [3, 11]: 0
Number of metastatic foci in each mouse, mouse 2 [3, 11]: 0
Number of metastatic foci in each mouse, mouse 3 [3, 11]: 1
Number of metastatic foci in each mouse, mouse 4 [3, 11]: 2
Number of metastatic foci in each mouse, mouse 5 [3, 11]: 2
Mean number of metastatic foci ([3]; lung, 5 mice, after 8 weeks): 1.0
Total number of metastatic foci ([3]; lung, 5 mice, after 8 weeks): 5
Metastasis inhibition (%) ([3]; lung, versus solvent, after 8 weeks): 70.5%

Molecule: H2N-Trp-His-Asp-Pro-Thr-Pro-Trp-Trp-Ser-Trp-Glu-Ile-COOH (H-WHDPTPWWSWEI-OH) [Peptide F90]
inhibition to the proliferation of umbilical cord vein-derived endothelial cells [2]: no significant inhibition
effect on chick chorioallantoic membrane blood vessels [1, 9]: derangeable in distribution and atrophic

Now from value to molecule, other results behind:

binding to Flt-1 (in words) [4]: no reaction
ELISA (OD492 nm), SFlt-1 [4]: 0.088
reaction with KDR (in words) [5]: no reaction
ELISA (OD492 nm), SKDR [5]: 0.074
binding of 125I-VEGF to coated sFlt-1 [7]: no notable effect
B1: dihydrofolate reductase (protein)
chain: MVRPLNCIVAVSQNMGIGKNGDLPWPPLRNEFKYFQRMTTTSSVEGKQNLVIMGRKTWFSIPEKNRPLKDRINIVLSRELKEPPRGAHFLAKSLDDALRLIEQPELASKVDMVWIVGGSSVYQEAMNQPGHLRLFVTRIMQEFESDTFFPEIDLGKYKLLPEYPGVLSEVQEEKGIKYKFEVYEKK
notes: dihydrofolate reductase, negative control protein
binding to endothelial cells (in words) [6]: no reaction
ELISA (OD492 nm), EC [6]: 0.080
effect on chick chorioallantoic membrane blood vessels [1, 9]: no notable effect

binding to Flt-1 (in words) [4]: can bind
ELISA (OD492 nm), SFlt-1 [4]: 0.529
reaction with KDR (in words) [5]: no notable reaction
ELISA (OD492 nm), SKDR [5]: 0.081
B2: DHFR-F56: fusion protein composed of peptide F56 and dihydrofolate reductase, expressed in E. coli M15 (protein)
chain: MVRPLNCIVAVSQNMGIGKNGDLPWPPLRNEFKYFQRMTTTSSVEGKQNLVIMGRKTWFSIPEKNRPLKDRINIVLSRELKEPPRGAHFLAKSLDDALRLIEQPELASKVDMVWIVGGSSVYQEAMNQPGHLRLFVTRIMQEFESDTFFPEIDLGKYKLLPEYPGVLSEVQEEKGIKYKFEVYEKKWHSDMEWWYLLG
binding to endothelial cells (in words) [6]: can bind
ELISA (OD492 nm), EC [6]: 0.477
binding of 125I-VEGF to coated sFlt-1 [7]: decreases along with the increase of the concentration of DHFR-F56
necrosis of tumor ([8]; FIG. 4): result in necrosis of tumor
growth of human gastric carcinoma MGC803 cells in Balb/c nude mice [8]: can inhibit the growth

binding to Flt-1 (in words) [4]: can bind
ELISA (OD492 nm), SFlt-1 [4]: 0.415
reaction with KDR (in words) [5]: no notable reaction
ELISA (OD492 nm), SKDR [5]: 0.074
B3: DHFR-F90: fusion protein composed of peptide F90 and dihydrofolate reductase, expressed in E. coli M15 (protein)
chain: B2 chain with S189D, D190P, M191T, E192P, Y195S, L196W, L197E, G198I
binding to endothelial cells (in words) [6]: can bind
ELISA (OD492 nm), EC [6]: 0.384
growth of human gastric carcinoma MGC803 cells in Balb/c nude mice [8]: can inhibit the growth
